{
  "source": "patent US20040037843A1",
  "key": {"HLA-A*2401 (human) [1]": {"target": "HLA-A*2401 (human)", "assay": "competition with 125I-labelled probe peptide for purified HLA, gel filtration"}, "HLA-A*2401 (human) [2]": {"target": "HLA-A*2401 (human)", "assay": "competition with 125I-labelled probe peptide for purified HLA, gel filtration", "remark": "listed apart in the source"}, "HLA-A*0203 (human) [3]": {"target": "HLA-A*0203 (human)", "assay": "competition with 125I probe peptide on purified HLA, gel filtration", "conditions": "remark: other sources report otherwise"}, "HLA-A*0201 (human) [4]": {"target": "HLA-A*0201 (human)", "assay": "competition with 125I probe peptide on purified HLA, gel filtration", "conditions": "remark: other sources report otherwise"}, "HLA-A*0201 (human) [5]": {"target": "HLA-A*0201 (human)", "assay": "inhibition of 125I probe peptide binding to purified HLA, gel filtration", "conditions": "remark: other sources report otherwise"}, "HLA-A*6802 (human) [6]": {"target": "HLA-A*6802 (human)", "assay": "inhibition of 125I probe peptide binding to purified HLA", "conditions": "remark: other sources report otherwise"}, "HLA-A*0206 (human) [7]": {"target": "HLA-A*0206 (human)", "assay": "inhibition of 125I probe peptide binding to purified HLA", "conditions": "remark: other sources report otherwise"}, "HLA-A*0206 (human) [8]": {"target": "HLA-A*0206 (human)", "assay": "inhibition of 125I probe peptide binding to purified HLA, gel filtration", "conditions": "remark: other sources report otherwise"}, "[9]": {"target": "HLA-A*2401 (purified HLA class I molecule) (human)", "assay": "competition with 125I-labelled standard peptide for purified HLA, gel filtration"}, "[10]": {"target": "HLA-A*2401 (purified HLA class I molecule) (human)"}, "HLA-A*2401 (human) [11]": {"target": "HLA-A*2401 (human)"}, "HLA-A*0202 (human) [12]": {"target": "HLA-A*0202 (human)", "assay": "competition with 125I-labelled standard peptide for purified HLA, gel filtration", "conditions": "remark: other sources report otherwise"}, "HLA-A*0203 (human) [13]": {"target": "HLA-A*0203 (human)", "assay": "competition with 125I-labelled standard peptide for purified HLA, gel filtration", "conditions": "remark: other sources report otherwise"}, "HLA-A*0201 (human) [14]": {"target": "HLA-A*0201 (human)", "assay": "competition with 125I-labelled standard peptide for purified HLA, gel filtration", "conditions": "remark: other sources report otherwise"}, "HLA-A*0206 (human) [15]": {"target": "HLA-A*0206 (human)", "assay": "competition with 125I-labelled standard peptide for purified HLA, gel filtration", "conditions": "remark: other sources report otherwise"}, "HLA-A*0202 (human) [16]": {"target": "HLA-A*0202 (human)", "conditions": "remark: other sources report otherwise"}, "HLA-A*0201 (human) [17]": {"target": "HLA-A*0201 (human)", "conditions": "remark: other sources report otherwise"}, "HLA-A*6802 (human) [18]": {"target": "HLA-A*6802 (human)", "conditions": "remark: other sources report otherwise"}, "HLA-A*0206 (human) [19]": {"target": "HLA-A*0206 (human)", "conditions": "remark: other sources report otherwise"}, "HLA-A*2401 (human) [20]": {"target": "HLA-A*2401 (human)", "remark": "listed apart in the source"}, "HLA-A*0203 (human) [21]": {"target": "HLA-A*0203 (human)", "conditions": "remark: other sources report otherwise"}, "HLA-A*0203 (human) [22]": {"target": "HLA-A*0203 (human)", "assay": "inhibition of 125I probe peptide binding to purified HLA", "conditions": "remark: other sources report otherwise"}, "HLA-A*0201 (human) [23]": {"target": "HLA-A*0201 (human)", "assay": "inhibition of 125I probe peptide binding to purified HLA", "conditions": "remark: other sources report otherwise"}, "[24]": {"conditions": "scale: ratio to standard peptide"}},
  "note": "Where two headings read alike, the source gives them in different places. Ends that are not written are not given here.",
  "data": [
    {"binder": "LFFWLDRSVL", "note": "[PAP position 22, 10 amino acids]", "values": [
      {"measurement": "relative binding ratio (IC50 of standard peptide / IC50 of test peptide)", "setting": "HLA-A*2401 (human) [1]", "value": 0.0045},
      {"measurement": "relative binding ratio (IC50 of standard peptide / IC50 of test peptide)", "setting": "HLA-A*2401 (human) [2]", "value": 0.0045}
    ]},
    {"binder": "ALDVYNGLL", "note": "[Peptide 1177.02 … (PAP.299)]", "values": [
      {"measurement": "IC50", "setting": "HLA-A*0203 (human) [3]", "value": 256, "unit": "nM"},
      {"measurement": "IC50", "setting": "HLA-A*0201 (human) [4]", "value": 73, "unit": "nM"}
    ]},
    {"binder": "DLMLLRLSEPV", "note": "[Peptide 63.0109 (PSA.116.V11)]", "values": [
      {"measurement": "IC50", "setting": "HLA-A*0201 (human) [5]", "value": 50, "unit": "nM"}
    ]},
    {"binder": "VLAKELKFVV", "note": "[Peptide 63.0034 … (PAP.30.V10)]", "values": [
      {"measurement": "IC50", "setting": "HLA-A*6802 (human) [6]", "value": 2290, "unit": "nM"},
      {"measurement": "IC50", "setting": "HLA-A*0206 (human) [7]", "value": 86, "unit": "nM"}
    ]},
    {"binder": "VVFLTLSVTWV", "note": "[Peptide 63.0185 (PSA.1.V11)]", "values": [
      {"measurement": "IC50", "setting": "HLA-A*0201 (human) [5]", "value": 89, "unit": "nM"},
      {"measurement": "IC50", "setting": "HLA-A*0206 (human) [8]", "value": 336, "unit": "nM"}
    ]},
    {"binder": "LYCESVHNF", "note": "[PAP position 213, 9 amino acids]", "values": [
      {"measurement": "relative binding ratio (IC50 of standard peptide / IC50 of test peptide)", "setting": "[9]", "value": 0.44},
      {"measurement": "relative binding ratio (IC50 of standard peptide / IC50 of test peptide)", "setting": "HLA-A*2401 (human) [1]", "value": 0.44}
    ]},
    {"binder": "FFWLDRSVL", "note": "[PAP (prostatic acid phosphatase) peptide, position 23, 9 amino acids]", "values": [
      {"measurement": "relative binding ratio (IC50 of standard peptide / IC50 of test peptide)", "setting": "[10]", "value": 0.0017}
    ]},
    {"binder": "GWGSIEPEEF", "note": "[Kallikrein position 156, 10 amino acids (…)]", "values": [
      {"measurement": "relative binding ratio (IC50 of standard peptide / IC50 of test peptide)", "setting": "HLA-A*2401 (human) [11]", "value": 0.0001}
    ]},
    {"binder": "LLSNDMCARA (not fully specified)", "note": "[Kallikrein (human kallikrein2) peptide, position 178, 10 amino acids]", "values": [
      {"measurement": "relative binding ratio", "setting": "HLA-A*0202 (human) [12]; [24]", "value": 0.08},
      {"measurement": "relative binding ratio", "setting": "HLA-A*0203 (human) [13]; [24]", "value": 0.028},
      {"measurement": "relative binding ratio", "setting": "HLA-A*0201 (human) [14]; [24]", "value": 0.003},
      {"measurement": "relative binding ratio", "setting": "HLA-A*0206 (human) [15]; [24]", "value": 0.002}
    ]},
    {"binder": "LYFEKGEYF", "note": "[PAP position 318, 9 amino acids]", "values": [
      {"measurement": "relative binding ratio (IC50 of standard peptide / IC50 of test peptide)", "setting": "[9]", "value": 2.5},
      {"measurement": "relative binding ratio (IC50 of standard peptide / IC50 of test peptide)", "setting": "HLA-A*2401 (human) [1]", "value": 2.5}
    ]},
    {"binder": "KLQCVDLHVV", "note": "[Peptide 63.0058 (PSA.166.V10)]", "values": [
      {"measurement": "IC50", "setting": "HLA-A*0206 (human) [8]", "value": 500, "unit": "nM"}
    ]},
    {"binder": "LLRLSEPAELT", "note": "[PSA peptide, position 119, 11 amino acids]", "values": [
      {"measurement": "relative binding ratio", "setting": "HLA-A*0201 (human) [14]; [24]", "value": 0.0023},
      {"measurement": "relative binding ratio", "setting": "HLA-A*0206 (human) [15]; [24]", "value": 0.0002}
    ]},
    {"binder": "SLQCVSLHLL", "note": "[peptide 1419.66 (HuK2.170, 10-mer)]", "values": [
      {"measurement": "IC50", "setting": "HLA-A*0202 (human) [16]", "value": 4.9, "unit": "nM"},
      {"measurement": "IC50", "setting": "HLA-A*0201 (human) [17]", "value": 263, "unit": "nM"},
      {"measurement": "IC50", "setting": "HLA-A*6802 (human) [18]", "value": 5000, "unit": "nM"},
      {"measurement": "IC50", "setting": "HLA-A*0206 (human) [19]", "value": 446, "unit": "nM"}
    ]},
    {"binder": "SYKHEQVYI", "note": "[PAP peptide, position 96, 9 amino acids (A24 supermotif)]", "values": [
      {"measurement": "relative binding ratio (IC50 of standard peptide / IC50 of test peptide)", "setting": "HLA-A*2401 (human) [20]", "value": 0.26}
    ]},
    {"binder": "HYRKWIKDTI", "note": "[Kallikrein position 248, 10 amino acids (…)]", "values": [
      {"measurement": "relative binding ratio (IC50 of standard peptide / IC50 of test peptide)", "setting": "HLA-A*2401 (human) [11]", "value": 0.055}
    ]},
    {"binder": "SLQCVSLHL", "note": "[peptide 60.0191 (HuK2.170, 9-mer)]", "values": [
      {"measurement": "IC50", "setting": "HLA-A*0202 (human) [16]", "value": 51, "unit": "nM"},
      {"measurement": "IC50", "setting": "HLA-A*0203 (human) [21]", "value": 417, "unit": "nM"},
      {"measurement": "IC50", "setting": "HLA-A*0201 (human) [17]", "value": 500, "unit": "nM"},
      {"measurement": "IC50", "setting": "HLA-A*6802 (human) [18]", "value": 2580, "unit": "nM"}
    ]},
    {"binder": "LTLSVTWIGA", "note": "[PSA peptide, position 4, 10 amino acids]", "values": [
      {"measurement": "relative binding ratio", "setting": "HLA-A*0202 (human) [12]; [24]", "value": 0.045},
      {"measurement": "relative binding ratio", "setting": "HLA-A*0203 (human) [13]; [24]", "value": 0.082},
      {"measurement": "relative binding ratio", "setting": "HLA-A*0201 (human) [14]; [24]", "value": 0.0018},
      {"measurement": "relative binding ratio", "setting": "HLA-A*0206 (human) [15]; [24]", "value": 0.011}
    ]},
    {"binder": "TLMSAMTNLA", "note": "[Peptide 20.0312 … (PAP.112)]", "values": [
      {"measurement": "IC50", "setting": "HLA-A*0203 (human) [22]", "value": 37, "unit": "nM"},
      {"measurement": "IC50", "setting": "HLA-A*0201 (human) [23]", "value": 385, "unit": "nM"},
      {"measurement": "IC50", "setting": "HLA-A*6802 (human) [6]", "value": 6670, "unit": "nM"},
      {"measurement": "IC50", "setting": "HLA-A*0206 (human) [7]", "value": 3700, "unit": "nM"}
    ]},
    {"binder": "ITSWGSEPCAL (not fully specified)", "note": "[PSA position 222, 11 amino acids]", "values": [
      {"measurement": "relative binding ratio", "setting": "HLA-A*0202 (human) [12]", "value": 0.012},
      {"measurement": "relative binding ratio", "setting": "HLA-A*0203 (human) [13]", "value": 0.0096},
      {"measurement": "relative binding ratio", "setting": "HLA-A*0201 (human) [14]", "value": 0.001},
      {"measurement": "relative binding ratio", "setting": "HLA-A*0206 (human) [15]", "value": 0.0001}
    ]},
    {"binder": "LFPPEGVSI", "note": "[PAP position 123, 9 amino acids]", "values": [
      {"measurement": "relative binding ratio (IC50 of standard peptide / IC50 of test peptide)", "setting": "[9]", "value": 0.0033},
      {"measurement": "relative binding ratio (IC50 of standard peptide / IC50 of test peptide)", "setting": "HLA-A*2401 (human) [1]", "value": 0.0033}
    ]},
    {"binder": "SLQCVSLHV", "note": "[peptide 1418.19 (HuK2.170.V9)]", "values": [
      {"measurement": "IC50", "setting": "HLA-A*0203 (human) [21]", "value": 48, "unit": "nM"},
      {"measurement": "IC50", "setting": "HLA-A*0201 (human) [17]", "value": 56, "unit": "nM"},
      {"measurement": "IC50", "setting": "HLA-A*0206 (human) [19]", "value": 4110, "unit": "nM"}
    ]}
  ]
}
